Target: filamentous actin (F-actin) (rabbit) (UniProt P68135)
Assay: co-sedimentation

CLIP-170 N-terminal fragment H2 (H2 1-481), sequence (P30622 1-481): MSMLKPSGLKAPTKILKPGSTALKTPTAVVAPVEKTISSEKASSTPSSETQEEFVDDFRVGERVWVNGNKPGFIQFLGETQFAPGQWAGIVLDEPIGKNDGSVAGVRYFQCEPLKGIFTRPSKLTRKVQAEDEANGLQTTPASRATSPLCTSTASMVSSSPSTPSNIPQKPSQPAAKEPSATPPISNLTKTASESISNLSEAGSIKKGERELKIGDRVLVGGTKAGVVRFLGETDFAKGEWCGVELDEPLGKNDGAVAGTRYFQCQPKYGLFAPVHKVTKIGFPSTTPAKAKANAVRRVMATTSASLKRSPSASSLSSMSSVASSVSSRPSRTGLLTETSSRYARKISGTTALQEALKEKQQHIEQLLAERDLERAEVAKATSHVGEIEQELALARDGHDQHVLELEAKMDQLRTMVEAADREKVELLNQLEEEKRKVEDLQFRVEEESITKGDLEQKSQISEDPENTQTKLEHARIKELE

CLIP-170 N-terminal fragment H2 (H2 1-481) (from UniProt P30622 1-481) (domain or fragment)
Kd: 10 µM
percent of H2 in the pellet with F-actin (self-pelleting subtracted): 26%
